# Measured values published in the supplement of paper PMC10567573.
# B1: ZNF263 (parent)
# chain: HLTRHQRTHTGEKPYKCTLCGENF
# Variants of: B1
# Test: protein stability index of a GFP-peptide fusion (GPS, HEK-293T) (PSI 1-6); higher = more stable
# Details: c terminus: a fixed tail appended
# 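Note: lentivirally expressed fusions sorted by FACS into six bins by GFP to DsRed ratio, PSI derived from sequencing read proportions per bin multiplied by bin number.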
row,Variant,protein stability index
1,HLTRHDRTHTGEKPYKCTLCGENF [Q6D],2.84
2,HLTRHVRTHTGEKPYKCTLCGENF [Q6V],2.29
3,HLTRHWRTHTGEKPYKCTLCGENF [Q6W],2.04
4,HLTRHFRTHTGEKPYKCTLCGENF [Q6F],2.08
5,HLTRHCRTHTGEKPYKCTLCGENF [Q6C],3.36
6,HLTRHMRTHTGEKPYKCTLCGENF [Q6M],2.6
7,HLTRHGRTHTGEKPYKCTLCGENF [Q6G],2.85
8,HLTRHARTHTGEKPYKCTLCGENF [Q6A],2.93
9,HLTRHKRTHTGEKPYKCTLCGENF [Q6K],2.94
10,HLTRHERTHTGEKPYKCTLCGENF [Q6E],2.71
11,HLTRHHRTHTGEKPYKCTLCGENF [Q6H],3.28
12,HLTRHNRTHTGEKPYKCTLCGENF [Q6N],2.46
13,HLTRHTRTHTGEKPYKCTLCGENF [Q6T],2.75
14,HLTRHSRTHTGEKPYKCTLCGENF [Q6S],3.68
15,HLTRHRRTHTGEKPYKCTLCGENF [Q6R],3.19
16,HLTRHIRTHTGEKPYKCTLCGENF [Q6I],2.22
17,HLTRHPRTHTGEKPYKCTLCGENF [Q6P],2.69
18,HLTRHYRTHTGEKPYKCTLCGENF [Q6Y],2.7
19,HLTRHQREHTGEKPYKCTLCGENF [T8E],3.4
20,HLTRHQRPHTGEKPYKCTLCGENF [T8P],2.54
21,HLTRHQRKHTGEKPYKCTLCGENF [T8K],2.38
22,HLTRHQRHHTGEKPYKCTLCGENF [T8H],2.78
23,HLTRHQRDHTGEKPYKCTLCGENF [T8D],3.52
24,HLTRHQRAHTGEKPYKCTLCGENF [T8A],3.44

row,Variant,protein stability index
1,HLTRHQRYHTGEKPYKCTLCGENF [T8Y],2.25
2,HLTRHQRRHTGEKPYKCTLCGENF [T8R],3.49
3,HLTRHQRSHTGEKPYKCTLCGENF [T8S],3.4
4,HLTRHQRIHTGEKPYKCTLCGENF [T8I],3.1
5,HLTRHQRGHTGEKPYKCTLCGENF [T8G],2.9
6,HLTRHQRLHTGEKPYKCTLCGENF [T8L],2.78
7,HLTRHQRVHTGEKPYKCTLCGENF [T8V],2.65
8,HLTRHQRNHTGEKPYKCTLCGENF [T8N],3.22
9,HLTRHQRWHTGEKPYKCTLCGENF [T8W],2.29
10,HLTRHQRQHTGEKPYKCTLCGENF [T8Q],3.41
11,HLTRHQRCHTGEKPYKCTLCGENF [T8C],2.99
12,HLTRHQRMHTGEKPYKCTLCGENF [T8M],2.5
13,HLTRHQRFHTGEKPYKCTLCGENF [T8F],2.46
14,HLTRHQRTHTGGKPYKCTLCGENF [E12G],2.23
15,HLTRHQRTHTGIKPYKCTLCGENF [E12I],2.11
16,HLTRHQRTHTGDKPYKCTLCGENF [E12D],2.68
17,HLTRHQRTHTGPKPYKCTLCGENF [E12P],2.8
18,HLTRHQRTHTGYKPYKCTLCGENF [E12Y],2.84
19,HLTRHQRTHTGQKPYKCTLCGENF [E12Q],2.74
20,HLTRHQRTHTGSKPYKCTLCGENF [E12S],3.19
21,HLTRHQRTHTGHKPYKCTLCGENF [E12H],3.78
22,HLTRHQRTHTGNKPYKCTLCGENF [E12N],2.7
23,HLTRHQRTHTGWKPYKCTLCGENF [E12W],1.87
24,HLTRHQRTHTGRKPYKCTLCGENF [E12R],2.55

row,Variant,protein stability index
1,HLTRHQRTHTGAKPYKCTLCGENF [E12A],3.53
2,HLTRHQRTHTGVKPYKCTLCGENF [E12V],3.08
3,HLTRHQRTHTGTKPYKCTLCGENF [E12T],2.59
4,HLTRHQRTHTGFKPYKCTLCGENF [E12F],2.47
5,HLTRHQRTHTGLKPYKCTLCGENF [E12L],2.29
6,HLTRHQRTHTGKKPYKCTLCGENF [E12K],3.2
7,HLTRHQRTHTGCKPYKCTLCGENF [E12C],2.41
8,HLTRHQRTHTGMKPYKCTLCGENF [E12M],2.71
9,HLTRRQRTHTGEKPYKCTLCGENF [H5R],2.74
10,HLTRWQRTHTGEKPYKCTLCGENF [H5W],2.31
11,HLTRFQRTHTGEKPYKCTLCGENF [H5F],2.47
12,HLTRMQRTHTGEKPYKCTLCGENF [H5M],2.28
13,HLTRKQRTHTGEKPYKCTLCGENF [H5K],2.98
14,HLTRSQRTHTGEKPYKCTLCGENF [H5S],3.2
15,HLTRLQRTHTGEKPYKCTLCGENF [H5L],2.09
16,HLTRAQRTHTGEKPYKCTLCGENF [H5A],2.69
17,HLTRGQRTHTGEKPYKCTLCGENF [H5G],3
18,HLTRIQRTHTGEKPYKCTLCGENF [H5I],2.11
19,HLTRTQRTHTGEKPYKCTLCGENF [H5T],2.24
20,HLTRVQRTHTGEKPYKCTLCGENF [H5V],2.27
21,HLTREQRTHTGEKPYKCTLCGENF [H5E],2.96
22,HLTRCQRTHTGEKPYKCTLCGENF [H5C],3.92
23,HLTRQQRTHTGEKPYKCTLCGENF [H5Q],3.08
24,HLTRYQRTHTGEKPYKCTLCGENF [H5Y],2.39

row,Variant,protein stability index
1,HLTRNQRTHTGEKPYKCTLCGENF [H5N],2.34
2,HLTRDQRTHTGEKPYKCTLCGENF [H5D],2.56
3,HLTRPQRTHTGEKPYKCTLCGENF [H5P],2.91
4,HLTRHQCTHTGEKPYKCTLCGENF [R7C],4.78
5,HLTRHQETHTGEKPYKCTLCGENF [R7E],3.98
6,HLTRHQNTHTGEKPYKCTLCGENF [R7N],3.51
7,HLTRHQWTHTGEKPYKCTLCGENF [R7W],2.12
8,HLTRHQDTHTGEKPYKCTLCGENF [R7D],3.2
9,HLTRHQSTHTGEKPYKCTLCGENF [R7S],3.36
10,HLTRHQFTHTGEKPYKCTLCGENF [R7F],2.49
11,HLTRHQLTHTGEKPYKCTLCGENF [R7L],2.97
12,HLTRHQQTHTGEKPYKCTLCGENF [R7Q],2.96
13,HLTRHQMTHTGEKPYKCTLCGENF [R7M],2.94
14,HLTRHQHTHTGEKPYKCTLCGENF [R7H],4.64
15,HLTRHQATHTGEKPYKCTLCGENF [R7A],2.94
16,HLTRHQITHTGEKPYKCTLCGENF [R7I],2.4
17,HLTRHQPTHTGEKPYKCTLCGENF [R7P],2.63
18,HLTRHQYTHTGEKPYKCTLCGENF [R7Y],2.9
19,HLTRHQKTHTGEKPYKCTLCGENF [R7K],2.97
20,HLTRHQVTHTGEKPYKCTLCGENF [R7V],2.96
21,HLTRHQTTHTGEKPYKCTLCGENF [R7T],3.6
22,HLTRHQGTHTGEKPYKCTLCGENF [R7G],3.39
